B1: clone 21.01 (ssRNA)
RNA: GGGAGAUCAGAAUAAACGCUCAACUGAUCAAUGGCGUACAAUGGAUUCGUUCUCAUAACCAAAACCCUUACCCCUUGGACUGAUUCGACAUGAGGCCCCUGCAGGGCG
B2: clone 21.07 (ssRNA)
RNA: GGGAGAUCAGAAUAAACGCUCAAUUGACUCAAUGGCGUACAAUGGAUUCGUUCUCAUAACCAAAACCCUUACCCCUUGGACUGUUCGACAUGAGGCCCCUGCAGGGCG
B3: clone 21.02 (ssRNA)
RNA: GGGAGAUCAGAAUAAACGCUCAACUGAUCAAUGGCGUACAAUGGAUUCGUUCUCAUAACCAAAACCCUUACCCCUGGACUGAUUCGACAUGAGGCCCCUGCAGGGCG
B4: clone 21.06 (ssRNA)
RNA: B1 RNA with A83U
B5: clone 21.05 (ssRNA)
RNA: B1 RNA with C72U, A83C
B6: clone 21.04 (ssRNA)
RNA: B1 RNA with U50C, A83C
B7: clone 21.03 (ssRNA)
RNA: B1 RNA with A83C
B8: clone 21.08 (ssRNA)
RNA: GGGAGAUCAGAAUAAACGCUCAAUUGAAGAUCGUACAAUGGAUUCGAUCAUAACCCGAAGUUUUUAAACACUCUUUACCUGUAUUCGACAUGAGGCCCCUGCAGGGCG
B9: RNA aptamer SEQ ID NO:26 (ssRNA)
RNA: GGGAGUGGAGGAAUUCAUCGAGGCAUGACCUCCCGUGGCAGUAGGGGUAAAAAUUAUCUUCCUACACUUCUCAUGCCUUAGCGACAGCAAGCUUCUGC
B10: RNA aptamer SEQ ID NO:25 (ssRNA)
RNA: GGGAGUGGAGGAAUUCAUCGAGGCAUAUGUCGACUCCGUCUUCCUUCAAACCAGUUAUAAAUUGGUUUUAGCAUAUGCCUUAGCGACAGCAAGCUUCUGC
B11: RNA aptamer SEQ ID NO:28 (3'-truncated) (ssRNA)
RNA: GGGAGUGGAGGAAUUCAUCGAGGCAUAUGUCGACUCCGUCUUCCUUCAAACCAGUUAUAAAUUGGUUUUAGCAUAUGCCU
B12: clone 21.12 (ssRNA)
RNA: GGGAGAUCAGAAUAAACGCUCAAGCGACAAGCAGCAGAUAAAGUUGAGCGCAACGCCGCUACAGAACCAAAUUAACAUGUAUGUUCGACAUGAGGCCCCUGCAGGGCG

Residue numbers refer to the chain shown, from its start.

For one data set, the target named is T1, Raf-1 RBD (GST-RBD) (UniProt P04049 P04049:51-131). In words: filter; group 1; value only in figure; PBS + 5 mM MgCl2, 37 C. As to conditions: tags: GST fusion, expressed in E. coli; label: 32P. As to the method: The interaction between the 10 RNAs among them and GST-RBD was examined by a binding assay using a nitrocellulose filter.
(§1) An RNA (4 nM) of which the 5'-terminus was labeled and 50 to 1,250 nM of GST-RBD were incubated in 600 µl of a binding buffer at 37° C. for 30 minutes. The culture was filtered with a nitrocellulose filter, and the radioactivity on the filter was measured. The Kd value was calculated using a software: Kalleider Graph (Bell, S. D., et al., (1998) J. Biol. Chem. 273, 14309–14314).
For the molecule B1, the binding result was “binds”. As to B2, the binding result was “binds”.

The target of the next data set is T1, Raf-1 RBD (GST-RBD). Kind of data set: filter; group 1; percent bound only in figure. As to conditions: tags: GST fusion, expressed in E. coli; label: 32P.
For the molecule B3, the binding result is “binds”. On the same count and under the same terms, then B4, with “binds”. Turning to B5, the binding result is recorded as “binds”. Take B6: the binding result is “binds”. For the molecule B7, the binding result was “binds”. On to B8, for which the binding result was “binds”.

For the next data set, the target named is T1, Raf-1 RBD (GST-RBD). In words: filter; PBS + 5 mM MgCl2, 37 C. The settings on record: tags: GST fusion, expressed in E. coli; label: 5'-32P. As to the method: as §1
With B9, the dissociation constant (Kd) – broadly, the constant that tells how readily two partners part at equilibrium – came to 295 nM.

Turning to B10, the equilibrium dissociation constant (Kd) came to 124 nM. Turning to B11, the Kd was 176 nM.

The target of another data set is T1, Raf-1 RBD (GST-RBD). In words: filter; scarcely bound; no inhibition of Ras binding at 12.5 uM. As to conditions: tags: GST fusion, expressed in E. coli; label: 32P.
Turning to B12, the binding result is listed as “no binding”.

The values above are taken from patent US6995249, “Nucleic acid capable of binding specifically to Ras target protein” (Japan Science and Technology Corporation).
